Assay [1] has as its target IL-2Rβ (CD122) on NK cells (human) (UniProt P14784). Nature of the assay: cell-based or functional assay.
Assay [2] has as its target high affinity IL-2Rαβγ complex on Treg cells (human) (UniProt P01589). Kind of assay: cell-based or functional assay.

Data on 1 molecule can be found in patent US20240199750A1.

Sequence of UniProt P01589 (P01589 22-272, chain 1 of 3): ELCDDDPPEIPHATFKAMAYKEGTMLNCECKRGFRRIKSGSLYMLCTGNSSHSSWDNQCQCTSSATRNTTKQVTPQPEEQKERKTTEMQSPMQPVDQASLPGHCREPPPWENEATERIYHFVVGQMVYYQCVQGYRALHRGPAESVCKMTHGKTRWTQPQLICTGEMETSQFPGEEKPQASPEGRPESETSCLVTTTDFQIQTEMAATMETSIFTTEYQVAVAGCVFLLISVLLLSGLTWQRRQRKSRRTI
Sequence of UniProt P01589 (P14784 27-551, chain 2 of 3, further chain): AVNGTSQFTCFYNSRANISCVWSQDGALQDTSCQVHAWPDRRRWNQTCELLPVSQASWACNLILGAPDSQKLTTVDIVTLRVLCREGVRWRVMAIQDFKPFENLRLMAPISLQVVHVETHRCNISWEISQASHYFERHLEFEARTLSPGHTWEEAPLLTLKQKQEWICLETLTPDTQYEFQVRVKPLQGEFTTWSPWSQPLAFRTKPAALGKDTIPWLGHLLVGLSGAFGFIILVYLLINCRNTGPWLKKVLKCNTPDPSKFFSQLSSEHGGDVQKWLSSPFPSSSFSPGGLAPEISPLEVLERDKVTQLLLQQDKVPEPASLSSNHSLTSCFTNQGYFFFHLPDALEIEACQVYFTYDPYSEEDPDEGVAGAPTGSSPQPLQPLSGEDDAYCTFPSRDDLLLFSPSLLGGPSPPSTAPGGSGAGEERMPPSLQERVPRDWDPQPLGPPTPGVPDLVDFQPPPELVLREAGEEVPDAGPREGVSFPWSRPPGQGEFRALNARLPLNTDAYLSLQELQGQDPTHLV
Sequence of UniProt P01589 (P31785 23-369, chain 3 of 3, further chain): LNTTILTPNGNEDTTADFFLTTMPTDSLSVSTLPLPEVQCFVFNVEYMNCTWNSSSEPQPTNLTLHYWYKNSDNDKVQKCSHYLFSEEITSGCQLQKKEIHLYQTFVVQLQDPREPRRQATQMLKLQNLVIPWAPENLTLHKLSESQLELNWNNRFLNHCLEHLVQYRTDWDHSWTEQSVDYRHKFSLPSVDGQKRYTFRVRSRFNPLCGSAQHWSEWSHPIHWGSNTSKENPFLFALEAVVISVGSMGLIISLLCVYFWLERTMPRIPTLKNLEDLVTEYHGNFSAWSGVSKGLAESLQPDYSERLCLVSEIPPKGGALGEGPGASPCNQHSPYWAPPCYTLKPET
Sequence of UniProt P14784 (P14784 27-551): as the sequence (P14784 27-551, chain 2 of 3, further chain) above

B1: CD20-T5-NKp46-IL2v3 (protein, part only; not given: anti-CD20 antibody chains, anti-NKp46 domain, part only)
chain, part: SSSTKKTQLQLEHLLLDLQMILNGINNYKNPKLTAMLAKKFYMPKKATELKHLQCLEEELKPLEEVLNLAQSKNFHLRPRDLISNINVIVLELKGSETTFMCEYADETATIVEFLNRWITFCQSIISTLT
Consider B1, for which, in assay [1], the % pSTAT5, EC50 NK cells turned out to be 10 pM. The same molecule had a % pSTAT5, EC50 Tregs in assay [2] of 0.7 nM.
